{
  "source": "paper PMC9395280",
  "target": "SARS-CoV-2 WT RBD protein (SARS-CoV-2, wild-type (ancestral)) (UniProt P0DTC2)",
  "experiment": "SPR",
  "data": [
    {"substance": "P2C-1F11-I27F (antibody)", "values": [
      {"measurement": "fold decrease of affinity against P2C-1F11", "result": "> 7", "unit": "fold"}
    ]}
  ]
}
